{"source": "patent US20250108100A1", "about": "“C-TERMINAL FRAGMENT OF APOLIPOPROTEIN E AND APPLICATION THEREOF IN INHIBITING y-SECRETASE ACTIVITY” (SYNPHATEC (SHANGHAI) BIOPHARMACEUTICAL TECHNOLOGY CO., LTD., priority 2022, published 2025)", "key": {"[1]": {"tested_on": "mouse APP (mAPP)", "assay": "α-CTF produced by mouse APP (mAPP) expressed in HEK 293T cells", "assay_type": "cell-based", "settings": "HEK 293T cells transiently expressing mAPP", "method": "Plasmids were transfected in HEK 293T or N2A cells for 36-48 hours and then lysed in cell lysis buffer [10% 1M tris-HCl (pH=6.8), 4% SDS, 20% glycerol, 0.01% bromophenol blue]. Lysates were shaken at room temperature for 10 min, then boiled for 10 min, and centrifuged at 12,000×g for 10 min. Proteins were run on 8% or 12% Tris-glycine SDS-PAGE and transferred to PVDF membranes (Life Technologies). Samples were incubated overnight at 4° C. with primary antibody diluted in 5% BSA buffer (in 1×TBST). After washing 3 times with 1×TBST, they were incubated with secondary antibody diluted in 5% BSA buffer (in 1×TBST) for 2 hours at room temperature. Finally, after washing 3 times with 1×TBST, the signal was detected by ECL Western blotting substrate (Solarbio, PE0010)."}, "[2]": {"tested_on": "5×FAD mice", "assay": "Amyloid plaques in brain of 5×FAD mice after AAV neuronal expression", "assay_type": "in vivo, mouse", "method": "0-7 months old C57 wild-type mice and AD model mice (5×FAD mice [Tg6799], mice expressing APP and PS1 comprising pathogenic mutations. The expressed APP comprises three mutations: K670N/M671L, I716V, V717I; and PS1 comprises two mutations: M146L, L286V). The mice were given sufficient food and water, and were reared at room temperature with a 12 h/12 h light-dark cycle, and the feeding environment reached the SPF (Specific Pathogen Free) standard.\n• a) The brain was taken by perfusion. The mice were perfused at the heart, the blood was washed out with 20 ml PBS, and then the mice were perfused with 20 ml 4% PFA. • b) Fixation and dehydration. The mice were fixed with 4% PFA at 4° C. for 24 hours, and then dehydrated with 30% sucrose at 4° C. • c) Mouse brain slices. After 24 hours of dehydration, the mice brain was cut into slices at a thickness of 40 μm, stored in frozen buffer solution or used for subsequent immunohistochemistry. • d) THS staining. The mouse brain slices were washed three times with ddH2O, 5 minutes each; soaked in 1% THS aqueous solution for 10 minutes; washed twice with 80% ethanol, each time for 3 minutes; washed once with 95% ethanol for 3 minutes. Immunohistochemistry was performed subsequently. If THS staining is not performed, the following immunohistochemistry was performed directly. • e) Immunohistochemistry. The mouse brain slices were washed three times with 1×PBS for 10 minutes each time; the cell membrane was permeated using 0.1% Triton-X100; the brain slices were blocked by using 5% donkey or goat serum; then the primary antibody was incubated at 4° C., shaken overnight (12-16 h); washed three times with 1×PBS for 10 minutes each time; the secondary antibody was incubated, shaken at room temperature for 1-2 h; washed three times with 1×PBS for 10 minutes each time. • f) Patching and sealing. • g) Imaging, 24 hours post sealing. • h) Images were processed and signal density was analyzed by Image J.\nAdeno-associated virus AAV-CT (AAV2/9-hSyn-ApoE CT) and AAV-GFP (AAV2/9-hSyn-EGFP-WPRE-pA) expressed in neurons were purchased from Tertu Biotechnology Company.\n1 μl of the adeno-associated virus prepared above was injected into the cerebral cortex (x, y, z, +/−1.6, 0, −1) and hippocampus (x, y, z, +/−1.5, −2, −1.5) of 1-month-old mice by using a stereotaxic injection device.\nHuman APP and PS1 with five fAD mutations are expressed in neurons of 5×FAD mice: K670N/M671L+I716V+V717I mutations in APP and M146L+L286V mutations in PS1 (Oakley et al., 2006). All mice were housed under a 12 h light-dark cycle (light from 8 am to 8 pm) with ad libitum access to food and water. All mouse procedures were performed in accordance with the Guide for the Care and Use of Laboratory Animals of the Chinese Academy of Sciences and the National Institutes of Health.\nMice were anesthetized with isoflurane and perfused with 4% PFA. Dissected mouse brains were fixed overnight in 4% PFA and cryoprotected overnight in 30% sucrose. A cryostat (Leica, CM3050S) was used to obtain frozen brain slices ([…]) from fixed and cryoprotected mouse brains. Floating slices were washed 3 times with ddH2O and then incubated with 1% THS (SIGMA) in water for 5 minutes at room temperature. Next, the slices were washed twice with 80% ethanol and once with 95% ethanol for 3 minutes each. The samples were washed with ddH2O and 3 times with 1×PBS before IHC.\nAfter being deeply anesthetized with isoflurane, mice (5 weeks old) were placed in a stereotaxic apparatus (RWD Instruments). The zero point (x, y, z, 0, 0, 0) is Bregma. Lentivirus (lentivirus-GFP, lentivirus-ApoE and lentivirus-ApoE-IRES-GFP) and AAV (AAV2/9-hSyn-EGFP-WPRE-pA and AAV2/9-hSyn-ApoECT; purchased from Shanghai Taitool Bioscience Co. Ltd.) were injected into the cortex (x, y, z, +/−1.6, 0, −1) or hippocampus (x, y, z, +/−1.5, −2, −1.5), injected 1 ul on each injection site. The mice were then returned to their cages for rehabilitation after surgery."}}, "note": "Entries after “also recorded” stand apart in the source; their conditions may differ."}
{"molecule": "ApoE CT: C-terminal fragment of ApoE, positions 216-299 of SEQ ID NO: 12; SEQ ID NO: 33 (protein) ARMEEMGSRTRDRLDEVKEQVAEVRAKLEEQAQQIRLQAEAFQARLKSWFEPLVEDMQRQWAGLVEKVQAAVGTSAAPVPSDNH", "values": [{"measurement": "α-CTF levels from mouse APP", "setting": "[1]", "value": "increases α-CTF levels"}, {"measurement": "average plaque size", "setting": "[2]; AAV at 4 weeks, after 10 weeks, subiculum, vs GFP", "value": "significantly reduced"}, {"measurement": "average area of each amyloid plaque", "setting": "[2]; AAV at 4 weeks, six months expression, subiculum, vs GFP", "value": "smaller"}, {"measurement": "percentage of total amyloid plaque area", "setting": "[2]; after 10 weeks, subiculum", "value": "significantly reduced"}, {"measurement": "plaque density", "setting": "[2]; after 10 weeks, subiculum", "value": "significantly reduced"}, {"measurement": "density of amyloid plaques", "setting": "[2]; six months expression", "value": "decreases; also recorded: lower"}, {"measurement": "proportion of total area of amyloid plaques", "setting": "[2]; six months expression", "value": "smaller proportion"}, {"measurement": "fluorescence intensity of amyloid plaques", "setting": "[2]; six months expression, THS", "value": "weaker"}]}
